The nanobody polyreactivity screen of Harvey et al. (2022)

Assay: yeast display, Sf9 membrane polyspecificity reagent, FACS + sequencing; frameworks hold sequencing errors
How it was run: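 A nanobody's polyreactivity label depends on the gate it was sorted from. Yeast display cells were stained with 10% biotinylated, detergent-solubilized Sf9 membrane reagent for 1 hour at 4 °C, enriched on streptavidin microbeads and sorted by FACS. The low and high (top ~1%) gates were set on anti-HA fluorescence for expression and streptavidin fluorescence for reagent binding.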
For “QVQLVESGGGLVQAGGSLRLSCAASGGTFVSYVMGWYRQAPGKEREWVAAISVSGGRTYYADSVKGRFTISRDNAKNTVYLQMNSLKPEDTAVYYCAADSVVVGSPGNDYWGQGTQVTVSS”, the “polyreactivity (PSR sort gate)” value was “high polyreactivity”. With “QVQLVESGGGLVQAGGSLRLSCAASGGTFVYSAMGWYRQAPGKERELVAAINWSGGSTYYADSVKGRFTISRDNAKNTVYLQMNILKAEDTAVLLLQRSGLRRSGVWFDYWGQGTQVTVSS” the “polyreactivity (PSR sort gate)” value was “low polyreactivity”. With “QVQLVESGGGLVQAGGSLRLSCAASGGTFVYYAMGWYRQAPGKERELVAAITSRGTSTYYADSVKGRFTISRDNAKNTVYLQMNSLKPEDTAVYYCAAGTPRGILRNSSYNYWGQGTQVTVSS” the “polyreactivity (PSR sort gate)” value was “high polyreactivity”. With “QVQLVESGGGLVQAGGSLRLSCAASGGTFVYYTMGWYRQAPGKERELVAAISGRGGRTYYADSVKGRFTISRDNAKNTVYLQMNSLKPEDTAVYYCTATQIGPYYLPFDSWGQGTQVTVSS” the “polyreactivity (PSR sort gate)” value was “high polyreactivity”. With “QVQLVESGGGLVQAGGSLRLSCAASGGTFWLYAMGWYRQAPGKEREFVAAISYSGGSTYYADSVKGRFTISRDHAKNTVYLQMNSLKPEDTAVYYCAASAYYLDYDYWGQGTQVTVSS” the “polyreactivity (PSR sort gate)” value was “high polyreactivity”. In the case of “QVQLVESGGGLVQAGGSLRLSCAASGGTFWVNMGWYRQAPGKEREFVAAITWSAGSTYYADSVKGRFTISRDNAKNTVYLQMNSLKPEDTAVYYCAGGGGHYQEYLMEDYWGQGTQVTVSS”, the “polyreactivity (PSR sort gate)” value is reported as “high polyreactivity”. With “QVQLVESGGGLVQAGGSLRLSCAASGGTFWYYAMGWYRQAPGKEREFVAAISSRGGNTYYADSVKGRFTISRDNAKNTVYLQMNSLKPEDTAVYYCNAKTHRRYSENYYWGQGTQVTVSS” the “polyreactivity (PSR sort gate)” value was “high polyreactivity”. For “QVQLVESGGGLVQAGGSLRLSCAASGGTFYFYAMGWYRQAPGKERELVATITRGGSTYYADSVKGRFTISRDNAKNTVYLQMNSLKPEDTAVYYCAARQYSRRRSPVSTWYYYWGQGTQVTVSS”, the “polyreactivity (PSR sort gate)” value was “high polyreactivity”. In the case of “QVQLVESGGGLVQAGGSLRLSCAASGGTFYINTMGWNRQAPGKERELVATITIVVSTKYADSVKGRFTISRDNAKNTVYLQMNSLNPEDTAVYYCAKDDVYRDSFLVFDGEMVYWGQGTQVTVSS”, the “polyreactivity (PSR sort gate)” value is reported as “low polyreactivity”. For “QVQLVESGGGLVQAGGSLRLSCAASGGTFYPYAMGWYRQAPGKERELVAAISRGGGSTSYADSVKGRFTISRDNAQNTVYLQMNSLKPEDTAVYYSNAYTYYHANHEQGFGYWGQGTQVTVSS”, the “polyreactivity (PSR sort gate)” value was “low polyreactivity”. For “QVQLVESGGGLVQAGGSLRLSCAASGGTFYRYAMGWYRQAPGKEMELVAAISSRGGSTYYADSVKGRFTISRDNAKNTVYLQMNSLKPEDTAVYYCAALFYLTPWQYDYWGQGTQVTVSS”, the “polyreactivity (PSR sort gate)” value was “high polyreactivity”. With “QVQLVESGGGLVQAGGSLRLSCAASGGTFYRYAMGWYRQAPGNERELVAAISSSGGRTYYADSVKGRFTISRDNAKNTVYVQMNSLKPEDTAVYYCNARYPRLHRTYNYWGQGTQVTVSS” the “polyreactivity (PSR sort gate)” value was “high polyreactivity”. With “QVQLVESGGGLVQAGGSLRLSCAASGGTFYVYAMGWYRQAPGKERELVAAISTSDGITYYADSVKGRFTISRDNAKNTVYLQMNSLKPEDTAVYYCAAEFFSSFTYAYDYWGQGTQVTVSS” the “polyreactivity (PSR sort gate)” value was “high polyreactivity”. In the case of “QVQLVESGGGLVQAGGSLRLSCAASGGTFYVYDMGWYRQTPGKEREFVADINFSTGITYYADSVKGRFTISRDNAKNTVYLQMNSLKPEDTAVYYCNADTAFYVYWYWIYDYWGQGTQVTVSS”, the “polyreactivity (PSR sort gate)” value is reported as “high polyreactivity”. For “QVQLVESGGGLVQAGGSLRLSCAASGGTFYYNAMGWYRQAPGKERELVAGITQSGGNTYYADSVKGRFTISRDNAKNTDYLQMNSLKPEDTAVYYCAARIRGTWKYGYWGQGTQVTVSS”, the “polyreactivity (PSR sort gate)” value was “low polyreactivity”. For “QVQLVESGGGLVQAGGSLRLSCAASGGTIAGYAMGWYRQAPGKARELVASISDGGSTNYADSVKGRFTISRDNAKNTVYLQMNSLKPEDTAVYYCAVQGSRTENYDWYYYWGQGTQVTVSS”, the “polyreactivity (PSR sort gate)” value was “low polyreactivity”. For “QVQLVESGGGLVQAGGSLRLSCAASGGTIGRYTMGWYRQAPGKERELVAAITGRGGSTYYADSVKGRFTISRDNAKNTVYLQMNSLKPEDTAVYYCAAVSNVARMYYWGQGTQVTVSS”, the “polyreactivity (PSR sort gate)” value was “high polyreactivity”. In the case of “QVQLVESGGGLVQAGGSLRLSCAASGGTIIGYAMGWYRQAPGKERELVAAITSGGSTYYADSVKGRFTISRDNAKNTVYLQMNSLKPEDTAVYYCAKSYGGLGSIYRFYYWGQGTQVTVSS”, the “polyreactivity (PSR sort gate)” value is reported as “low polyreactivity”. For “QVQLVESGGGLVQAGGSLRLSCAASGGTLAYYAMGWYRQAPGKERELVAAITRSGGSTYYSDSVKGRFTISRDNAKNTVYLQMNSLNPEVTAVYYCAALLAYWKNRWHIEYDYWGQGTQVTVSS”, the “polyreactivity (PSR sort gate)” value was “low polyreactivity”. For “QVQLVESGGGLVQAGGSLRLSCAASGGTLGLNAMGWYRQAPGKEREFVAAINRSGGSTRYADSVKGRFTISRDNAKNTVYLQMNSLKPEDTAVYSCAAVGYWGPSGRHKSSKYEYWGQGTQVTVSS”, the “polyreactivity (PSR sort gate)” value was “high polyreactivity”. With “QVQLVESGGGLVQAGGSLRLSCAASGGTSFYAMGWYRQAPGKDRELVAAITRSGGSTYYADSVKGRFTFSRDNAKNTVYLQMNSLKPEDTAVYYCAALSNHGYYIRMDYWGQGTQVTVSS” the “polyreactivity (PSR sort gate)” value was “high polyreactivity”. For “QVQLVESGGGLVQAGGSLRLSCAASGGTSIPYAMGWYRQAPGKERELVAAITRSGGRTYYADSVKGRFTISRDNAKNTVYLQMNSLKPEDTAVYYCAAAYYRWGYTVTVIKQFGYWGQGTQVTVSS”, the “polyreactivity (PSR sort gate)” value was “high polyreactivity”. In the case of “QVQLVESGGGLVQAGGSLRLSCAASGHIFFVNAMGWYRQAPGKERELVAAINSVGSTYYADSVKGRFTISRDNAKNTVYLQMNSLKPEDTAVYYCAADSVYSQRHSWAYEDDYWGQGTQVTVSS”, the “polyreactivity (PSR sort gate)” value is reported as “low polyreactivity”. For “QVQLVESGGGLVQAGGSLRLSCAASGHIFPTNPMGWYRQAPGKERQLVAVISESVGSTYYADSVKGRFTISRDNAKNTVYLQMNSLKPEDTAVYFCAKQSRYPSLDADYDYWGQGTQVTVSS”, the “polyreactivity (PSR sort gate)” value was “low polyreactivity”. For “QVQLVESGGGLVQAGGSLRLSCAASGHTFLEYAMGWYRQAPGKESELVASISFSAGSTYYADSVKGRFTISRDNAKNTVYLQLNSLKPEDTALYYCNAEYLYDYYYYWPYWFEFDYWGQGTQVTVSS”, the “polyreactivity (PSR sort gate)” value was “high polyreactivity”. With “QVQLVESGGGLVQAGGSLRLSCAASGHTLAVKAKGWYRQAPGKERELVAAITRSGVTTSYADSVKGRFTISRDNAQNTFYLQLHSVKPEDTAVSYCAAQLDASYLTGGWRRHYNYWGQGTQVTVSS” the “polyreactivity (PSR sort gate)” value was “low polyreactivity”. With “QVQLVESGGGLVQAGGSLRLSCAASGIFDPNAMGWNRQAPRKERELVAAITSGGSTNYADSVKGRFTISRDNAKNTVYLQMNSLKPEDTAVYYCNRVEGRTRWADEMNYWGQGTQLTVSS” the “polyreactivity (PSR sort gate)” value was “low polyreactivity”. In the case of “QVQLVESGGGLVQAGGSLRLSCAASGIFFNYMGWYRQAPGKEREFVAAIDYRGGNTFYADSVKGRFTISRDNAKNTVYLQMNSLKPEDTAVYYCARAFGQRRYDYWGQGTQVTVSS”, the “polyreactivity (PSR sort gate)” value is reported as “high polyreactivity”. In the case of “QVQLVESGGGLVQAGGSLRLSCAASGIFFPNAMGCYRQAPGKERELVAAISWTGGSTFYADSVKGRFTISRDNAKNTVYLQMNSLKPEDTAVYYCAAEEYYAGWTYDYWGQGTQVTVSS”, the “polyreactivity (PSR sort gate)” value is reported as “high polyreactivity”. In the case of “QVQLVESGGGLVQAGGSLRLSCAASGIFGVNTMGWYRQAPGKERELVASITSGGSTNYADSVKGRFTISRDNAKNTVYLQMNSLKPEDTAVYYCAAGLYLQGPFDYWGQGTQVTVSS”, the “polyreactivity (PSR sort gate)” value is reported as “low polyreactivity”. In the case of “QVQLVESGGGLVQAGGSLRLSCAASGIFGYNAMGWYIQAPGKERELVAAITSSGTSTYYADSVKGRFTISRDNAKNTVYLQMNSLKPEDTAVYYCAALHSGTWTGYGYWGQGTQVTVSS”, the “polyreactivity (PSR sort gate)” value is reported as “low polyreactivity”. For “QVQLVESGGGLVQAGGSLRLSCAASGIFSRYAMGWYRQAPGKERELVAAISSGGSTYYADSVKGRFTISRDNAKNTVYLQMNSLKAEDTAVYYCAVKQRDKFAGGRNDYWGQGTQVTVSS”, the “polyreactivity (PSR sort gate)” value was “high polyreactivity”. With “QVQLVESGGGLVQAGGSLRLSCAASGIFSYYAMGWYRPAPGKERELVAAISSSGGSTYYADSVKGRFTISRDNAMNTVYLQMNSLKPEDTAVYYCNVRNYYNDYYYWGQGTQVTVSS” the “polyreactivity (PSR sort gate)” value was “high polyreactivity”. In the case of “QVQLVESGGGLVQAGGSLRLSCAASGIFTRYAMGWYRQAPGKERELVAAISRGGGSTYYADSVKGRFTISRDNAKNTVYLQMNSLKPEDTAVYYCNTYKRPRSPGPKFYYWGQGTQVTVSS”, the “polyreactivity (PSR sort gate)” value is reported as “high polyreactivity”. With “QVQLVESGGGLVQAGGSLRLSCAASGIFVDNAMGWYRQAPGKERELVAAITSSTDSTYYADSVKGRFTISRDNAKNTVYLQMNSLKPEDTAVYYCAVARPGGFYFLVHYGYGYWGQGPQVTVSS” the “polyreactivity (PSR sort gate)” value was “low polyreactivity”. In the case of “QVQLVESGGGLVQAGGSLRLSCAASGIIFAGNAMGWYRQAPGKERELVAAISSNGGSTYYADSVKGRFTISRDNAKNYVYLQMNSLKPEDTAVYYCAADRVYWGRVQGYYWGQGTQVTVSS”, the “polyreactivity (PSR sort gate)” value is reported as “low polyreactivity”. For “QVQLVESGGGLVQAGGSLRLSCAASGIIFAGYAMGWYRQAPGKVRELVAAISGSGGRTYYADSVKGRLTISRDNAKNTVYLQMNSLKPEDTAVSFCAAEGRSEWGGDYYYGGQGTQVTVSS”, the “polyreactivity (PSR sort gate)” value was “low polyreactivity”. In the case of “QVQLVESGGGLVQAGGSLRLSCAASGIIFANYAMGWYRQAPGKERELVAAITSSGSTYYADSVKGRFTISRDNAKNTVYLQMNSLKPEDTAVYYCAARRRGRFYYWGQGTQVTVSS”, the “polyreactivity (PSR sort gate)” value is reported as “high polyreactivity”. In the case of “QVQLVESGGGLVQAGGSLRLSCAASGIIFASNAMGWYRQAPGKQRELVATINWTDSSTYYADSVKGRFTISRDNAKNTVYLQMNSLKPEDTAVYYCAVVDVEEHVGHWGQGTQVTVSS”, the “polyreactivity (PSR sort gate)” value is reported as “low polyreactivity”. With “QVQLVESGGGLVQAGGSLRLSCAASGIIFAYYAMGGYRHAPGKERELVAAISRSGGITYYADSVKGRFSISRDNAKNTVYLQMNSLKPEDTAVYDCARFSSRPYDYWGQGTQVTVSS” the “polyreactivity (PSR sort gate)” value was “high polyreactivity”. In the case of “QVQLVESGGGLVQAGGSLRLSCAASGIIFAYYAMGWYRQAPGKERELVAAISRSGGITYYADSVKGRFTISRDNAKNTVYLQMNSLKPEDTAAYYCARYSCRPYDYWGQGTQVTVSS”, the “polyreactivity (PSR sort gate)” value is reported as “high polyreactivity”. In the case of “QVQLVESGGGLVQAGGSLRLSCAASGIIFAYYAMGWYRQAPGKVRELVASITNTGSTYYADSVKGRFTISRDNAKNTVYLQMNSLKPEDTAVYYCNAVLSSNTKWRYPGDYWGQGTQVTVSS”, the “polyreactivity (PSR sort gate)” value is reported as “low polyreactivity”. In the case of “QVQLVESGGGLVQAGGSLRLSCAASGIIFAYYAMGWYRQGPGKERELVASITNTGSTYYADSVKGRFTISRDNSKNTVYLQMNSLKPEDTAVYYCNAVLSSNTKWRYPGDYWGQGTQVTVSS”, the “polyreactivity (PSR sort gate)” value is reported as “low polyreactivity”.
